From paper PMC7911018, “Effect of Humanizing Mutations on the Stability of the Llama Single-Domain Variable Region” (Biomolecules, 2021) come the findings set out here.

This test addresses T1, HER2 ectodomain-Fc (96 kDa) (Homo sapiens, UniProt P04626).
T1 construct: human epidermal growth factor receptor 2 (HER2), ectodomain; also called extracellular domain of HER2; human epidermal growth factor receptor 2
Kind of test: SPR; Biacore T100, 25 °C; HER2 ectodomain-Fc amine-coupled on a CM5 chip at 1270 RU; VHHs injected as analytes at 7 concentrations between 250 and 3.5 nM in 20 mM Hepes, 150 mM NaCl, 3 mM EDTA, 0.005% Tween 20, pH 7.4; 1:1 Langmuir fit. The note with it: both partners purified.

B1: VHH A10 (anti-HER2 nanobody) (VHH)
VHH: DVQLQASGGGFVQPGGSLRLSCAASGATSNISNMGWFRQAPGKEREFVSAISRAESRPLYYADSVKGRFTISRDNSKNTVYLQMNSLRAEDTATYYCAYMPLVRHKAYWGQGTQVTVSS
notes: anti-HER2 VHH from a synthetic library with camelid FW2 hallmarks FERF; also called A10 wt; source: expressed in bacteria, purified (IMAC, SEC)
Regarding B1, the binding result is listed as “binds”.
